Data on two molecules can be found in patent US20230121197A1, “ANTIBODIES SPECIFICALLY BINDING THE CARBOXYMETHYLATED CATALYTIC SUBUNIT OF PROTEIN PHOSPHATASE 2A” (Medizinische Universität Wien, priority 2020, published 2023).

Experiment [1] has as its target T1, HA-PP4c (Mus musculus, UniProt P97470).
T1 construct: expressed in transfected cells; host or cells: NIH3T3 mouse fibroblasts, retroviral pBabe hygro HA-PP4c
T1 sequence (P97470 1-307): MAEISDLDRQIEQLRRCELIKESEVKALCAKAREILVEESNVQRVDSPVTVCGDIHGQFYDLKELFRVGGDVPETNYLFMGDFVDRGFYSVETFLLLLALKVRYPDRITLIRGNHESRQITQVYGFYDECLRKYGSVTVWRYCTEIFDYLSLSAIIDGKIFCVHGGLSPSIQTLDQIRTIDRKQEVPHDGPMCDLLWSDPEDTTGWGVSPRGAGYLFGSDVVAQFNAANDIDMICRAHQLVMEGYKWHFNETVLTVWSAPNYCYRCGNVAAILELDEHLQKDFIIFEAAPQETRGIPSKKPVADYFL
The experiment can be described thus: Immunoblotting of anti-HA immunoprecipitates of NIH3T3 cells, PP4c. Type of experiment: binding. The source says:
(§1) The catalytic subunits of protein phosphatase 4 (PP4c) and 6 (PP6c) are closely related to PP2Ac with approximately 50% sequence identity. PP2Ac, PP4c and PP6c share the C-terminal DYFL or YFL motif, respectively (FIG. 8A). Therefore, a potential cross-reactivity of 7C10-C5 with α-carboxymethylated PP4c and/or PP6c was examined and compared to another anti-carboxymethyl-PP2Ac antibody 2A10. 2A10 is a carboxymethyl-PP2Ac specific antibody that has been raised against a larger C-terminal PP2Ac peptide (amino acids 302-309, carboxymethylated Leu^309) and that has been shown before to cross-react with α-carboxymethylated PP4c (Lee (2014), Biochem Biophys Res Commun 452, 42-47). HA tagged human PP2Ac a, mouse HA PP4c or mouse HA PP6c from NIH3T3 mouse fibroblasts stably expressing these HA-tagged proteins were immunoprecipitated. The precipitated proteins were then analyzed by immunoblotting with anti-carboxymethyl-PP2Ac antibodies 7C10-C5 or 2A10.
(§2) Specifically, 500 μl corresponding to 1 mg of whole cell protein lysates of NIH3T3 mouse fibroblasts were incubated with anti-hemagglutinin (HA) antibody (clone 12CA5) crosslinked to BSA-coated protein A-Sepharose beads (GE-Healthcare) to immunoprecipitate HA-epitope tagged PP2Ac, PP4c or PP6c for 1 h. […]

Experiment [2] concerns the target T2, HA-PP6c (Mus musculus, UniProt Q9CQR6).
T2 construct: expressed in transfected cells; host or cells: NIH3T3 mouse fibroblasts, retroviral pBabe hygro HA-PP6c
T2 sequence (Q9CQR6 1-305): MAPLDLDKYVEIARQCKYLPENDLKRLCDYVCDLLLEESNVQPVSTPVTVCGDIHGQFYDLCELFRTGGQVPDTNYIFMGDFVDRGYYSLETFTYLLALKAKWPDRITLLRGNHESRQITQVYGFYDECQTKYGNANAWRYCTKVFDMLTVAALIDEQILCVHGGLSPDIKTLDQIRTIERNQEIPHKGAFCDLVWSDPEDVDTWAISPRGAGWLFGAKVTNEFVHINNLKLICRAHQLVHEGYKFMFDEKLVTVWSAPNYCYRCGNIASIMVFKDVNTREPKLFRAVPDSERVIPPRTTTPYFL
Briefly: Immunoblotting of anti-HA immunoprecipitates of NIH3T3 cells, PP6c. The class given is binding.
Source text: as §1, §2
On the technique in general: In western blotting, separated proteins are transferred to a membrane and probed.

In experiment [3] the target is T3, PP2Ac C-terminal peptide meL309, ac-HVTRRTPDYFL-CH3 (α-carboxymethylated) (human, SMILES …).
T3 construct: also called Y307-meL309; mePP2Ac
T3 peptide: Ac-HVTRRTPDYFL-OMe
The experiment can be described thus: ELISA (FIG. 4). The procedure:
Nunc Medisorp 96-well ELISA flat-bottom plates were coated with peptides L309 (ac-[…]) (SEQ ID NO:18), meL309 (ac-[…]-CH₃) (SEQ ID NO:18) or amL309 (ac-[…]-NH₂) (SEQ ID NO:18) at 2 μg/ml in TBS at 4° C. over-night. After washing once with TBS, the wells were incubated with 2% BSA in TBS for 1 h at RT. After washing once with TBS, the wells were incubated with single clone hybridoma cell culture supernatant clone 7C10-C5 1:50 (˜1 μg/ml) in 1% BSA/TBS for 1 h at RT. After washing twice with TBS, wells were incubated with anti-mouse HRP-coupled secondary antibody for 1 h at RT, followed by washing 3× in PBS. Bound antibodies were detected by colorimetric reaction with 3,3′,5,5′-Tetramethylbenzidine as substrate, and absorbance was measured at 450 nm. Values were normalized to meL309 which was set to 1. Average and standard deviation of N=8 experiments are shown. Statistical significance was assessed using ANOVA followed by Tukey's HSD as a post-hoc test. P values are indicated with *, **, ***, which correspond to values of <0.05, <0.01, and <0.001. […]
In general terms: ELISA stands for enzyme-linked immunosorbent assay.

Where [4] appears, read: Western blot of HA immunoprecipitates.
The mark [5] stands for this setting: Western blot, suggested since no discernable signal.

B1: 7C10-C5: α-carboxymethylation specific mouse monoclonal IgG1 antibody from single clone hybridoma 7C10-C5 (DSM ACC3350) (antibody)
heavy: MYRMQLLSCIALSLALVTNSDVQLQESGPGLVKPSQSLSLTCSVTGYSITSGYYWNWIRQFPGNKLEWMGYISYDGSNNYNPSLKNRISITRDTSKNQFFLKLNSVTTEDTATYYCAGRFAYWGQGTLVTVSAAKTTAPSVYPLAPVCGDTTGSSVTLGCLVKGYFPEPVTLTWNSGSLSSGVHTFPAVLQSDLYTLSSSVTVTSSTWPSQSITCNVAHPASSTKVDKKIEPRGPTIKPCPPCKCPAPNLLGGPSVFIFPPKIKDVLMISLSPIVTCVVVDVSEDDPDVQISWFVNNVEVHTAQTQTHREDYNSTLRVVSALPIQHQDWMSGKEFKCKVNNKDLPAPIERTISKPKGSVRAPQVYVLPPPEEEMTKKQVTLTCMVTDFMPEDIYVEWTNNGKTELNYKNTEPVLDSDGSYFMYSKLRVEKKNWVERNSYSCSVVHEGLHNHHTTKSFSRTPGK
light: MDMRVPAQLLGLLLLWLSGARCDVLMTQTPLSLPVSLGDQASISCRSSQSIVHSNGNTYLEWYLQKPGQSPKLLIYKVSNRFSGVPDRFSGSGSGTDFTLKINRVEAEDLGVYYCFQGSHVPWTFGGGTKLEIKADAAPTVSIFPPSSEQLTSGGASVVCFLNNFYPKDINVKWKIDGSERQNGVLNSWTDQDSKDSTYSMSSTLTLTKDEYERHNSYTCEATHKTSTSPIVKSFNRNEC
modifications: Amino acid sequence of the recombinant 7C10-C5 heavy chain; Amino acid sequence of the recombinant 7C10-C5 light chain
In the case of B1, in experiment [1] (setting [4]), the “detection of PP4c” value was “did not detect”. In addition, the “binding to carboxymethylated PP2Ac stronger than to carboxymethylated PP4c” value in experiment [1] (setting [5]) was 100-fold or even 500-fold. For the same molecule, the “detection of PP6c” value in experiment [2] (setting [4]) is reported as “did not detect”. In experiment [2] (setting [5]), the “binding to carboxymethylated PP2Ac stronger than to carboxymethylated PP6c” value is reported as 100-fold or even 500-fold.

B2: 7C10-C5 monoclonal antibody (antibody, V domains shown)
VH: DVQLQESGPGLVKPSQSLSLTCSVTGYSITSGYYWNWIRQFPGNKLEWMGYISYDGSNNYNPSLKNRISITRDTSKNQFFLKLNSVTTEDTATYYCAGRFAYWGQGTLVTVSA
VL: DVLMTQTPLSLPVSLGDQASISCRSSQSIVHSNGNTYLEWYLQKPGQSPKLLIYKVSNRFSGVPDRFSGSGSGTDFTLKINRVEAEDLGVYYCFQGSHVPWTFGGGTKLEIK
notes: Used as hybridoma culture supernatant (ELISA, Western blot, IHC) or at 50 µg/mL (SPR); also called 7C10 X63; clone 7C10-C5
B2: the “fold stronger binding than to the amidated C-terminal part of PP2Ac (ELISA)” value in experiment [3] came out at 6.15 fold.
